In the experiment the target is FLAG-WT CFTR (cystic fibrosis transmembrane conductance regulator) (UniProt P13569 1-1480). Put plainly: pull-down.
FLAG-WT CFTR (cystic fibrosis transmembrane conductance regulator), sequence (P13569 whole entry): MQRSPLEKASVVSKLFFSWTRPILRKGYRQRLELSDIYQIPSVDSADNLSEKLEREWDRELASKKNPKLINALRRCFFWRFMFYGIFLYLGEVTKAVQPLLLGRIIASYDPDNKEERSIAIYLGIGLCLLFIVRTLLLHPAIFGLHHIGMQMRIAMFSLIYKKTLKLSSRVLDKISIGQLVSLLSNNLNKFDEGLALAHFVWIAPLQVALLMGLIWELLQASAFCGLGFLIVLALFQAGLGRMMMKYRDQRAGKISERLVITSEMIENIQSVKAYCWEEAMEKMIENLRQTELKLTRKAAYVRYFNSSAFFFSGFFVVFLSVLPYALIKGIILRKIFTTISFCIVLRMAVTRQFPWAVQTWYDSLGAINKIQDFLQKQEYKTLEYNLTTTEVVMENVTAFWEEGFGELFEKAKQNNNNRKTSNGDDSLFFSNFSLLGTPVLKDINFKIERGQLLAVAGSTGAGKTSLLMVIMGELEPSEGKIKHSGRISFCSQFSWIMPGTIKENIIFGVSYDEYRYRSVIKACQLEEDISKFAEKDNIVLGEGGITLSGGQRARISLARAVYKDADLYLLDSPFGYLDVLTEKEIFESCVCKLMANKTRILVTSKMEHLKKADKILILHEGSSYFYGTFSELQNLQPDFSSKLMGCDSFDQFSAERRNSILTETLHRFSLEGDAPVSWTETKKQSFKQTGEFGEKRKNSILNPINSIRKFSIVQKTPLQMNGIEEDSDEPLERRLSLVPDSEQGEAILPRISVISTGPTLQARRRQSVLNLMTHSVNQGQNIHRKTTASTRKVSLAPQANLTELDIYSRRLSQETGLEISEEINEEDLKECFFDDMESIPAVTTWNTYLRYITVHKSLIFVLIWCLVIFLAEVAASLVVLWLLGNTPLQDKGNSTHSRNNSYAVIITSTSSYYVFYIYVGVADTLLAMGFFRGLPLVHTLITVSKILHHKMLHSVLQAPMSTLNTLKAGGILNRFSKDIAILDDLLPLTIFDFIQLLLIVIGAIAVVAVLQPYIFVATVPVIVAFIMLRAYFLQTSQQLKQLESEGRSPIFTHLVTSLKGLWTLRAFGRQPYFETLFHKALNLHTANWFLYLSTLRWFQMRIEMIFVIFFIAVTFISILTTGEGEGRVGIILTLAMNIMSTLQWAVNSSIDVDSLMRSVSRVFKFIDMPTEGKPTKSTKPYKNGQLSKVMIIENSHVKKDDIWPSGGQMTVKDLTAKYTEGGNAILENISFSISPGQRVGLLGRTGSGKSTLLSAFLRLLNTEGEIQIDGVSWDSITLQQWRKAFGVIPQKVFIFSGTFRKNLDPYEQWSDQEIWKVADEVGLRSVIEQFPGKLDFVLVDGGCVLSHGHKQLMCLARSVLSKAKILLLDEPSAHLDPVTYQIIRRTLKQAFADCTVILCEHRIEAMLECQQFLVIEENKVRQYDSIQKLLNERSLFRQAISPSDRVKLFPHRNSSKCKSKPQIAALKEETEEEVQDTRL

B1: GST-His-S-Stx17ΔC (Stx17 1–228) (domain or fragment, UniProt P56962 1-228, looked up)
chain: MSEDEEKVKLRRLEPAIQKFIKIVIPTDLERLRKHQINIEKYQRCRIWDKLHEEHINAGRTVQQLRSNIREIEKLCLKVRKDDLVLLKRMIDPVKEEASAATAEFLQLHLESVEELKKQFNDEETLLQPPLTRSMTVGGAFHTTEAEASSQSLTQIYALPEIPQDQNAAESWETLEADLIELSQLVTDFSLLVNSQQEKIDSIADHVNSAAVNVEEGTKNLGKAAKYK
B1: the binding result is on record as “binds”.
